Reference: PMC5959011

Assays:
[1] = biological target: smallest capsid protein (SCP) VP26 (herpes simplex virus type 1 (HSV-1), strain KOS) (UniProt P10219); experiment: cryo-EM structure
[2] = biological target: tegument protein pUL25 (herpes simplex virus type 1 (HSV-1), strain KOS) (UniProt P10209); experiment: cryo-EM structure

smallest capsid protein (SCP) VP26 (from UniProt P10219 1-112) (natural protein)
stoichiometry N [1]: 6

tegument protein pUL25 (from UniProt P10209 1-580) (natural protein)
stoichiometry N [2]: 2
